From patent US20040224362A1

Target: anti-FLAG M2 mouse monoclonal IgG1 (Sigma-Aldrich PN F-3165)
Test: capture on a 1 m Protein G capillary, elution with 14.7 mM phosphoric acid pH 2.2, Bradford assay at 595 nm

Protein G (CalBiochem, San Diego, Calif., PN 539303) (from UniProt P19909 303-497)
amount of IgG trapped and eluted: 2.5 µg
